# Reference: patent US12697366B2, “Thermogenic compositions and methods” (Ohio State Innovation Foundation, priority 2016, dated 2026)
# B1: IGFBP4: recombinant insulin-like growth factor binding protein 4 (protein)
# chain: DEAIHCPPCSEEKLARCRPPVGCEELVREPGCGCCATCALGLGMPCGVYTPRCGSGLRCYPPRGVEKPLHTLMHGQGVCMELAEIEAIQESLQPSDKDEGDHPNNSFSPCSAHDRRCLQKHFAKIRDRSTSGGKMKVNGAPREDARPVPQGSCQSELHRALERLAASQSRTHEDLYIIPIPNCDRNGNFHPKQCHPALDGQRGKCWCVDRKTGVKLPGGLEPKGELDCHQLADSFRE
# Key:
# [1] = system: ob/ob mice; experiment: AAC2, IGFBP4 and AAC2-IGFBP4 treatment of ob/ob mice; assay type: in vivo, mouse; settings: ELISA, end of study
# Description: A study was performed in ob/ob mouse model of obesity, insulin resistance, and type 2 diabetes. Treatment groups (n=5) included vehicle (non-treated control), AAC2 nanofiber alone, IGFBP4 peptide alone, and AAC2-IGFBP4 peptide bound to nanofiber. 5-week old male Lep^ob mice (ob/ob mice, Jackson #000632-B6.Cg-Lepob/J, Homozygous for Lepob) were randomized into four groups (n=5/group). After 1 week assimilation period, mice were injected (10 μl/g body weight (BW)) into scapular region every 48 h for 4 weeks with: • Group 1: PBS vehicle control, • Group 2: 1 nmol AAC2/g BW, • Group 3: 0.0187 nmol human insulin-like growth factor binding protein 4 (hIGFBP4, Peprotech #350-05B), or • Group 4: AAC2/hIGFBP4 combination (1 nmol AAC2 and 0.0187 nmol hIGFBP4/g BW were assembled into complex prior to injection)
# [2] = system: 3T3-L1 preadipocytes; experiment: FD-glucose uptake in 3T3-L1 preadipocytes; assay type: cell-based, mouse; settings: mouse recombinant IGFBP4; human insulin 10 μg/mL; 90 min
# Description: Non-differentiated, 90% confluent 3T3-L1 cells were starved with glucose-deprived medium for 40 min. Then cells were treated in the presence and absence of different concentrations of nanoscaffold #2 and bovine insulin (200 μg/mL), all of reagents dissolved in the same glucose-deprived medium but containing fluorescent-D (FD)-glucose for 80 min. Thereafter, the FD glucose uptake was measured according to manufacturer's instructions (Cayman Chemical, USA, cat #600471). […] Non-differentiated, 90% confluent 3T3-L1 cells treated in the presence and absence of different concentrations of nanoscaffold #2 and bovine insulin (10 μg/mL) or mouse epiregulin (EREG, 0.05 μg/mL) and incubated for 24 h. Then cells were starved with glucose-deprived medium for 40 min and, then incubated with fluorescent-D (FD)-glucose for 80 min. Thereafter, the FD glucose uptake was measured according to manufacturer's instructions (Cayman Chemical, USA, cat #600471). Data are shown as percent of uptake in the presence of insulin (100%).
# Non-differentiated, 90% confluent 3T3-L1 cells treated in the presence of bovine insulin (10 μg/mL), mouse epiregulin (EREG, 0.05 μg/mL), or their combinations and incubated for 24 h. Then cells were starved with glucose-deprived medium for 40 min and, then incubated with fluorescent-D (FD)-glucose for 80 min. Thereafter, the FD glucose uptake was measured according to manufacturer's instructions (Cayman Chemical, USA, cat #600471).
# Non-differentiated, 90% confluent 3T3-L1 cells were starved with glucose-deprived medium for 50 min. Then cells were treated in the presence and absence of different concentrations of mouse recombinant IGFBP4 with and without nanoscaffold #2 and human insulin (10 μg/mL). All of reagents were dissolved in the same glucose-deprived medium but containing fluorescent-D (FD)-glucose for 90 min. Thereafter, the FD glucose uptake was measured according to manufacturer's instructions (Cayman Chemical, USA, cat #600471).
# Glucose uptake assay was performed using glucose uptake cell-based assay kit (Cayman Chemical, Ann Arbor, MI). 3T3-L1 or human preadipocytes were cultured at a density of 5×10^4 per well into a 96-well plate (n=7) in high glucose media and grown overnight. Old cell culture medium was removed the next day and washed with PBS to remove residual glucose. Supplied 2-deoxy-2-[(7-nitro-2,1,3-benzoxadiazol-4-yl)amino]-D-glucose) (2-NBDG) was diluted to 150 μg/mL in DMEM medium without glucose, phenol red, L-glutamine, sodium pyruvate, and HEPES (Life technologies, Grand Island, New York). 100 μL of 2-NBDG glucose free medium with or without recombinant EREG and other treatments was added to the plated cells. After incubating at 37° C. for 30 minutes, cells were washed gently two times with 200 μL of glucose assay buffer. 100 μL of the assay buffer was added to each well and measured for fluorescence at an excitation/emission of 485/535 nm.
# Fluorescence glucose uptake (FD-glucose assay) was performed as described PMID: 32065973, using insulin, 1.7 μM and different AACs at concentration 0.1 μM.
# FD-glucose uptake in mouse 3T3-L1 preadipocytes (n=8 per treatment) treated with vehicle (Veh; PBS, open bar) or hINS (1.7 μM), mouse leptin (mLep; 12.5 nM, hatched bar), or AAC2 (0.1 μM black bar) in the presence and absence of GLUT1 inhibitor (BAY-876; 10 nM in DMSO). Cells were pre-treated with or without BAY-876 for 40 min and then FD glucose and treatment reagents were added for additional 80 min of incubation. Data (%) was normalized to FD-glucose uptake in control (Veh) 3T3-L1 cells without inhibitor (100%). Student's independent t-test.
molecule,measurement,setting,value
B1,hyperinsulinemia (insulin levels in the blood),[1],reduction
same,"glucose uptake, concentration compared with insulin",[2],improves glucose uptake at 100 lower concentration than insulin
